The values that follow are results of earlier work, collected in article PMC3197216.

Broadly, the Kd is the concentration at which binding is half-saturated.

For series [1], the target named is GluA3 ATD (Rattus norvegicus) (UniProt P19492).
In series [2] the target is KA2 ATD (Rattus norvegicus) (UniProt Q63273).
Series [3] addresses NR2 ATD (Rattus norvegicus) (UniProt Q00960).
Chain of UniProt Q00960 (Q00960 31-394): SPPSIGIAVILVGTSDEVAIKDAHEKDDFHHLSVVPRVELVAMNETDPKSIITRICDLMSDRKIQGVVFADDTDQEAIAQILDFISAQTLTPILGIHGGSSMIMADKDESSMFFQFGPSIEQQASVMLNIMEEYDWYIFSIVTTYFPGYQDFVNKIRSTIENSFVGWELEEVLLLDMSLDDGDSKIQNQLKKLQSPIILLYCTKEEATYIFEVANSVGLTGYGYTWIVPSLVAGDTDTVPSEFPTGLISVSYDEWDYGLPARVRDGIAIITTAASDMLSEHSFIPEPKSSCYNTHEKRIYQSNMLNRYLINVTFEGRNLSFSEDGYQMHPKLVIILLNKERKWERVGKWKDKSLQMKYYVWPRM

Chain of UniProt Q63273 (Q63273 20-402): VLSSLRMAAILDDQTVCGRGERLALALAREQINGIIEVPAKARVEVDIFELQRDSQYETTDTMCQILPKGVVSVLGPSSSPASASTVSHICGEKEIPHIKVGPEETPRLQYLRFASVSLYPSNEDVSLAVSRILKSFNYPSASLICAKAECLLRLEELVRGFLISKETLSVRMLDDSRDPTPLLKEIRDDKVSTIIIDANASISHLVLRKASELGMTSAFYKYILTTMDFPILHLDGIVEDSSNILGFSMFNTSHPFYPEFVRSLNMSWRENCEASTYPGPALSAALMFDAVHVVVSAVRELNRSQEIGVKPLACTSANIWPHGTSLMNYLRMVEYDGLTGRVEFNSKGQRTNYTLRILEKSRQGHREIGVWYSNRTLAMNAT

In the case of GluA3 ATD (from UniProt P19492), the Kd in series [1] was 1200 nM. With GluR6 ATD (from UniProt P42260), in series [2], the equilibrium dissociation constant (Kd) is 11 nM. For NR1 ATD (from UniProt P35439), the Kd in series [3] is 700 nM.
